Laboratory results: patent US8629107B2, “Genes and proteins associated with angiogenesis and uses thereof” (National Jewish Health, priority 2005, dated 2014)

Legend:
Notch1 = target: T1, Notch1 (Mus musculus, UniProt Q01705); test: Notch1 processing assay in human kidney 293T cells; assay type: cell-based; conditions: co-expression with Notch1 and Jagged-1 in 293T cells
T1 construct: expressed in transfected cells; host or cells: human kidney 293T cells, transient transfection (LT-1 liposomes)
T1 sequence (Q01705 19-2531): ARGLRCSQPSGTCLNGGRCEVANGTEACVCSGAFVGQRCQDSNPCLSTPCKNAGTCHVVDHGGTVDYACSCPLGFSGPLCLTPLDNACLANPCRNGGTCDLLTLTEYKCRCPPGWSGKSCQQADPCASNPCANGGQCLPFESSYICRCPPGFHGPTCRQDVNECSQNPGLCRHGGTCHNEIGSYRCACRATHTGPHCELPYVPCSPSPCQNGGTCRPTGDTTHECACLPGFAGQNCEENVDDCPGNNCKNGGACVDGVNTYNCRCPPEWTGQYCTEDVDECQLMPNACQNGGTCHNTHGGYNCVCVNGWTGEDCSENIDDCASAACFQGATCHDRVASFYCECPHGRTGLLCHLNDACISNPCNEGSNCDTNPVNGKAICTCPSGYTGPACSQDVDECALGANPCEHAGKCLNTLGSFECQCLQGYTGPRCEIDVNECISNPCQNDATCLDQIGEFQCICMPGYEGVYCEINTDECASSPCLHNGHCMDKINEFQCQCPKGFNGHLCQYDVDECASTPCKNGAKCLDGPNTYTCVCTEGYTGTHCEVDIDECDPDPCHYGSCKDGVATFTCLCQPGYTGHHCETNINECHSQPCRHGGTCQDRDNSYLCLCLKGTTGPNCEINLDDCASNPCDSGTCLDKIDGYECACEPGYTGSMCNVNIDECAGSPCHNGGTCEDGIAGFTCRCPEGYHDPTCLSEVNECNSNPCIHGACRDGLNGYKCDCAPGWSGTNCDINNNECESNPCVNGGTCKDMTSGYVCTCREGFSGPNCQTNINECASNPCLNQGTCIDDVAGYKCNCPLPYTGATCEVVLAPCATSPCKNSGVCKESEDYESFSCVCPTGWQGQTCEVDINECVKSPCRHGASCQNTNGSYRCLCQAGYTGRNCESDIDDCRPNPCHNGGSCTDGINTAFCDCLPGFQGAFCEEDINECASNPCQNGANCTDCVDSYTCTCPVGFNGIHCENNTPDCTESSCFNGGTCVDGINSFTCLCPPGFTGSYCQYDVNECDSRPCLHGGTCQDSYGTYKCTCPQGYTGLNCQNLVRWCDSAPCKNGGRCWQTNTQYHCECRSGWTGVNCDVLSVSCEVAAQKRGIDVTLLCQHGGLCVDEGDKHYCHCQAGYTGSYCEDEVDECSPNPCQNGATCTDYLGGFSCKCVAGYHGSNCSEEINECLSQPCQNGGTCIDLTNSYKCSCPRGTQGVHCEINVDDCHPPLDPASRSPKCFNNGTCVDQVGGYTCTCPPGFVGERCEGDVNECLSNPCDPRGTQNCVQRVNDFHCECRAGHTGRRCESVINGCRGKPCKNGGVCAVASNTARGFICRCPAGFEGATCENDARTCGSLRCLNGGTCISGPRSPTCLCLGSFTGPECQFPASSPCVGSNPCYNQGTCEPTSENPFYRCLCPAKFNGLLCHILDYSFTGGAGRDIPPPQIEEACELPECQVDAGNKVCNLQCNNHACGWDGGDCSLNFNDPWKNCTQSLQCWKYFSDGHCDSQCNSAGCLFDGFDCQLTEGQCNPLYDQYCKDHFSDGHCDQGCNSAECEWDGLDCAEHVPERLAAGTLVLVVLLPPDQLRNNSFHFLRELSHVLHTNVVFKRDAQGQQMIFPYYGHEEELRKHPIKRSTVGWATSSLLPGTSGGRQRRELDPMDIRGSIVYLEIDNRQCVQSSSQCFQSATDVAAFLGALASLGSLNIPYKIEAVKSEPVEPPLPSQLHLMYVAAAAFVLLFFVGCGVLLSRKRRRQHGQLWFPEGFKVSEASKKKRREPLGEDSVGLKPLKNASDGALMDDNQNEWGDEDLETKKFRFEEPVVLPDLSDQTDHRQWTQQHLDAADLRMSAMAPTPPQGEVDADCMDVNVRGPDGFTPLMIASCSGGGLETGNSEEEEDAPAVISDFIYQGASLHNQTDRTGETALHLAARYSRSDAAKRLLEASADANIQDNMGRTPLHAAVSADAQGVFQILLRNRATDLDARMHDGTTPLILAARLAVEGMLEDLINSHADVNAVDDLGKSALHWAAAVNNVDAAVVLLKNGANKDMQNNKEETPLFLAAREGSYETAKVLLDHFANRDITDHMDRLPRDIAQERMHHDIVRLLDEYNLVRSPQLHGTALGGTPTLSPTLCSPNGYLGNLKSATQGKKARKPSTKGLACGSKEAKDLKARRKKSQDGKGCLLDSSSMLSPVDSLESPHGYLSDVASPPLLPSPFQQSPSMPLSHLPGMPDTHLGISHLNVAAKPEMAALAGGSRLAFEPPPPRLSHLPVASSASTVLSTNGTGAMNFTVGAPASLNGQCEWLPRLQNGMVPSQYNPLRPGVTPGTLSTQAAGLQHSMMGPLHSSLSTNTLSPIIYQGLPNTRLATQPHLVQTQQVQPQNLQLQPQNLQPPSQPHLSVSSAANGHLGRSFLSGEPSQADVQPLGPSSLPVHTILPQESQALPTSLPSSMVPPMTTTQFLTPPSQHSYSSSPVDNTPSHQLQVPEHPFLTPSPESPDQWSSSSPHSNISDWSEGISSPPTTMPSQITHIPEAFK
Description: To monitor the effects of MAGP-2 on the processing and S3 cleavage of Notch1, human kidney 293T cells were transiently transfected in 6-well plates with LT-1 liposomes containing 0.5 μg/well of Notch1 (pCS2+mN1FL6MT), 0.5 μg/well Jagged-1 (pCS2+Jag1-6MT), or 1.5 μg/well of MAGP-2 (pcDNA3.1-MAGP-2/Myc-His) in all combinations. Forty-eight h post-transfection, the cells were washed with ice-cold PBS, lysed immediately in Buffer H/1% Triton X-100 [500 μl/well; (Schiemann et al, 2002)], and incubated on ice for 30 min. Afterward, insoluble material was removed by microcentrifugation and 100 μl of the resulting clarified extract was fractionated through 6% SDS-PAGE gels. The fractionated proteins were transferred electrophoretically to nitrocellulose and probed with anti-Myc 9E10 monoclonal antibodies (Covance, Princeton, N.J.) to visual Notch1 cleavage species.
Activation of Notch1 signaling involves three proteolytic processing events, termed S1, S2, and S3, that produce three distinct Notch1 fragments, termed TMIC, NEXT, and NICD, respectively (Mumm et al, 2000). […] The inventors tested this possibility by transiently transfecting human 293T cells with cDNAs encoding Myc-tagged versions of Notch1, Jagged-1, and MAGP-2 in all combinations, and subsequently monitored changes in NICD production and accumulation by immunoblot analyses using anti-Myc monoclonal antibodies. […]

MB114 cells = test: cell invasion through Matrigel matrices, modified Boyden-chamber assay; assay type: cell-based, murine; conditions: MB114 cells stably expressing the transgene vs GFP; 48 h
Description: The effect putative angiogenic agents had on MB114 cell activities were determined as follows: (i) cell proliferation using a [^3H]thymidine incorporation assay as described (Albig et al, 2006; Albig and Schiemann, 2004; Albig and Schiemann, 2005); (ii) cell invasion through Matrigel matrices using a modified Boyden-chamber assay as described (Albig et al, 2006; Albig and Schiemann, 2004; Albig and Schiemann, 2005); (iii) p38 MAPK phosphorylation using immunoblot analyses as described (Albig et al, 2006; Albig and Schiemann, 2004; Albig and Schiemann, 2005); (iv) angiogenic sprouting in rat tail collagen matrices as described (Albig et al, 2006; Albig and Schiemann, 2004); and (v) Hes1- and SBE-driven luciferase reporter gene assays as described (Albig et al, 2006; Albig and Schiemann, 2004; Albig and Schiemann, 2005).
FIG. 1A show results from an experiment in which serum-starved MB114 cells, stably expressing either GFP or various putative angiogenic agents, were stimulated in the absence or presence of either bFGF (50 ng/ml) or EGF (10 ng/ml) for 24 h at 37° C. Differences in MB114 cell DNA synthesis was determined by measuring [^3H]thymidine incorporation into cellular DNA. […] In this experiment, invasion of MB114 cells expressing either GFP or various putative angiogenic agents through synthetic basement membranes was determined over 48 h using a modified Boyden-chamber assay.

B1: MAGP-2: secreted glycoprotein (25 kDa); stably expressed in MB114 cells by bicistronic retroviral transduction, Myc-His tagged (protein)
chain: QRGDDVPETFTDDPNLVNDPSTDDTALADITPSTDDLAGDKNATAECRDEKFACTRLYSVHRPVRQCVHQSCFTSLRRMYIINNEICSRLVCKEHEAMKDELCRQMAGLPPRRLRRSNYFRLPPCENMNLQRPDGL
modifications: left off: small tags and cut ends
notes: secreted glycoprotein (25 kDa); stably expressed in MB114 cells by bicistronic retroviral transduction, Myc-His tagged
- ability of Jagged-1 to induce Notch1 cleavage and NICD production (Notch1): reduced significantly
- MB114 cell invasion through synthetic basement membranes (MB114 cells): significantly induced
